Molecular target: human plasma-derived coagulation Factor X (FX) (human) (UniProt P00742)
Experiment: cell-based or functional assay

Chain of human plasma-derived coagulation Factor X (FX) (human) (P00742 41-179, chain 1 of 2): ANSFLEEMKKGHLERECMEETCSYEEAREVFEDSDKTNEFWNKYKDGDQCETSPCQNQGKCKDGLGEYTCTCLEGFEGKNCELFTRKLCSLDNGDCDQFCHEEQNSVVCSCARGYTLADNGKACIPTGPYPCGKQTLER
Chain of human plasma-derived coagulation Factor X (FX) (human) (P00742 183-488, chain 2 of 2): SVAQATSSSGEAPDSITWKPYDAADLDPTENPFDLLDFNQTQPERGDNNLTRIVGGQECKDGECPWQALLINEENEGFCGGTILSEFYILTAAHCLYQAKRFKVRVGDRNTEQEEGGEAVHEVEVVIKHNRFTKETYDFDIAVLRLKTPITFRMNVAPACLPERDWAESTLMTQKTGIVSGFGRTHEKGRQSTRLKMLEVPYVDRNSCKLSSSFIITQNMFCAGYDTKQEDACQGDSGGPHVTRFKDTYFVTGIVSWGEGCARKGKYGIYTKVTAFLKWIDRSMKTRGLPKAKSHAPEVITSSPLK

Substance: Emicizumab sequence identical analogue (SIA) (bispecific antibody)
- KM of FX activation by 0.1 nM FIXa with phospholipid vesicles, antibody at 300 nM: 0.0535 µM

From patent publication US20240425837A1 (Novo Nordisk, published 2024)
